The supplement of paper PMC12042874
± gives the uncertainty stated by the source.

Experiment: amyloid nucleation score (Sup35N fusion, yeast selection) (log enrichment); library NNK1; higher = more nucleation; inactive = no reads after selection
In short: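 The nucleation score, computed with DiMSum, is the log enrichment of output over input reads, centred on the mode score of non-aggregating sequences. Sequences with under 100 input reads were dropped. Reads were generated by Illumina sequencing of plasmid inserts from psi-negative yeast with Sup35N fused to peptides of 20 random codons, induced with 100 μM copper sulfate for 24 hours and grown 7 days at 30°C on medium lacking adenine and uracil.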

Substance	amyloid nucleation score
KAPAMHWLDRFVGYVPRV	-0.011 ± 0.27
YPLINTLDMHRLCRIYCVNE	-0.514 ± 0.54
MNKQAFNGRM	inactive
YGSSLAAWVRLCVLTGDSRQ	1.46 ± 0.38
MWVLRPCCHFAVCRGIKVSR	-0.046 ± 0.53
MFYSFNDVGWFAFRFSEIGV	-0.539 ± 0.41
TAYIIKHSFWLGPFNLGSLM	3.88 ± 0.12
YQLTQLGLLS	0.025 ± 0.49
PTETVMMRRIFGSRGPWYAV	0.286 ± 1.4
TICNMSRWYDMKNYGEKMEV	1.21 ± 0.6
FGYNFRPHHCGCTRNLNSQM	0.115 ± 0.29
AIASVLAN	-0.482 ± 0.3
SFCLFNVIYQFIGKRCPNSG	3.82 ± 0.1
MPLLYSVSHCWFKPAFGWAW	0.442 ± 0.69
QFTRLCMLRNTLFTVVENQA	0.383 ± 0.65
YPGGILIRRVNIKLDGAAIV	-0.869 ± 0.68
NGLSRYKKDLGLVDWYFGQM	0.744 ± 0.37
LLCFLFTK	3.32 ± 0.15
MLVHYVAFVFNMSTRCNCSE	6.253 ± 0.046
FYWMMANRNTQCVVCFAVLR	-0.754 ± 0.54
LLWTKFGYCYRIEWSAVWFF	-0.527 ± 0.52
MLDFTIQGLKSCWISVSLFF	inactive
CRDRRS	1.91 ± 0.35
TGYLERRVGYYRVRFRCERS	0.022 ± 0.6
KAGVSVLYLHMFLF	-0.303 ± 0.79

Substance	amyloid nucleation score
RDDDPYVQDRPLRDFVFKKY	-0.472 ± 0.35
HAFKPSAAPQWRTYPRFRSG	inactive
VFIYTAACP	0.492 ± 0.45
SMSSSWG	0.19 ± 0.56
YPLSLRYQCI	0.2 ± 0.25
LWDIFFRSLSVLAYNIKMFS	-0.552 ± 1
NPRLCPKDMRGRPQEKRVPQ	-0.345 ± 1.7
CQYMFHIWQLIANHVI	0.799 ± 0.43
ESSMLAMVGIQSTWCNVSYG	1.67 ± 0.2
VLMFIINSCKR	7.028 ± 0.052
YVEPSF	-0.083 ± 0.97
CRLSTS	-0.966 ± 0.42
ITVRATR	-0.97 ± 1.7
NFFQWPSVETWTASIN	-0.144 ± 0.41
RGGGAEKLLQSTCNSYVVWL	3.66 ± 0.061
CGNLVCCNIMTDKNGY	7.886 ± 0.055
RLSLTINFGNKFRCITGQFD	4.01 ± 0.091
MMGGSRWTCCYTFDFWSCWD	4.27 ± 0.1
LVCDQLLIITLKCDERHQVT	7.474 ± 0.074
GESKHKQSNECTQCC	1.11 ± 0.37
RLNNRRFLSWRCTNNQCWRV	-0.159 ± 0.86
SSYAVSTSSPCLSATSARLK	0.893 ± 0.98
SLVRMLRHLRMDEKFLLIRY	0.268 ± 0.53
KLCCSLVNSIMNLFAMSAAV	inactive
VMNENI	inactive

Substance	amyloid nucleation score
KMSVRNVTDFGVRLVRYFNG	1.42 ± 0.22
NMTPFGYIHFTL	0.644 ± 1
GPVVLRTGLLVRFTYHIGRE	1.15 ± 0.24
RARLNRFVICVSLDMLVLWM	-0.709 ± 0.45
NWNSR	0.197 ± 0.64
TSGFLPLKTKMF	0.252 ± 0.8
QFSCFMMFIIYE	4.16 ± 0.064
TFGVVEFSRNRGMSLCETLN	0.386 ± 0.42
SDRPMRFNFSNNAYDSHLYL	0.511 ± 0.67
FLHVPVLFSFTHCFMG	3.03 ± 0.13
RTYSFC	-0.41 ± 0.93
DLPLTYMCSN	0.359 ± 0.7
QTTTLYRFCCEWQSPASVVM	0.333 ± 0.97
AVSLFAGDQFDDTTRSAQGI	-0.306 ± 0.74
VRYMSLWGIVSRVCGIRMER	1.23 ± 0.56
CRSSGADSRLLNIVKPCTLP	-0.616 ± 0.33
TEEFYPARSCMK	-1.87 ± 1.3
VDLSLLIMVFQFGGVGERLR	2.15 ± 0.17
CVKRLLPVYWWGESG	0.123 ± 0.91
GLREMRNISAVFCFRLYICL	1.58 ± 0.14
FIFVIDTRVLRTLINCPTPS	-0.047 ± 0.36
ILVYERTYFRNLQWIIRWFS	-0.356 ± 0.22
PISSGNCSTRLGSFSSWYSV	-0.485 ± 0.68
KNRQLTRLFYTWELRTGTVG	-0.227 ± 0.61
RSDVVVFHQLS	-0.257 ± 1.7

Substance	amyloid nucleation score
VAQLRIKVCKDPGTWLQVHH	1.48 ± 0.74
GMYRSVCDKVYRGCTIEVVV	1.55 ± 0.54
LRDTRAWVLN	-0.295 ± 0.43
LLVRNMSNVVPLMFSIPSNV	0.458 ± 0.65
FCLNGRYECGSRMECEMVRE	-0.741 ± 0.39
REVSVVNLYRCFDGIRSKLT	0.219 ± 0.23
GASGGVTASLLKTRITVTWV	-0.271 ± 0.79
LYDFINYG	-0.592 ± 1.2
DNMYIFEN	-0.352 ± 0.46
LVVNEFALVNKPDINFCLPQ	4.56 ± 0.092
VLVMVEFTMLEALWRCLAVG	-0.297 ± 0.5
GTFISLLLS	-0.077 ± 0.26
YTANYGILVFAVC	-0.702 ± 1.4
RTRTFVNPAAAIHMPPSEET	0.049 ± 0.29
LYICPHYDYWLCEQYMHWSP	0.69 ± 0.35
SKSTYSLIGLGTFISRFNGN	1.03 ± 0.36
RCGSPSAHNSIYMR	1.34 ± 0.32
FSYCAFHIMNQWVVFNYGGC	6.421 ± 0.06
SFEWSSFTYFSNFWWLEPNT	0.738 ± 0.65
IVETLCRYCVPRVMVTFVGQ	inactive
SKSRLL	0.006 ± 0.4
PIMWCWHAVMSLS	inactive
VVRTH	inactive
HTHSGVYC	-0.468 ± 0.5
SQKEFRKTAIKTHLMFRIHL	-0.258 ± 0.29

Substance	amyloid nucleation score
TYTCVNPVGHFTGGNRGILW	0.425 ± 1.1
LRRSTFASVDLRRADFIKLF	0.165 ± 0.69
WCSDKSVGRAKDDDSGTRRC	-0.018 ± 0.46
FDKYLRWFMKTLCNIDNWRW	-0.233 ± 0.24
CVFYCRR	0.091 ± 1.1
LGFQLFNQGWAQNSTPRFSY	-1.29 ± 1.9
LVITVYLYVRRDFCFAFGWL	-1.06 ± 1.2
FVRGDKLRTTGELSSAINRS	-0.608 ± 0.57
GMTCSQGSEWMLERGNRTEV	-0.294 ± 0.66
LSEEWTIYKFNRRRMKIGRG	0.707 ± 0.4
VHLTSPYHCRVPDMNSCYGS	0.371 ± 0.91
WMALDYGYSTSHGNCYMEIS	1.23 ± 0.84
ALAWWVLFL	0.132 ± 1
IFGCRLLYCS	0.402 ± 1.4
MSKYALNLAMVDRGLSKDQN	-0.898 ± 1.6
IYEKRGD	1.15 ± 0.98
MNLRETSAFSPCNEVL	-0.063 ± 1.4
NDSDARYHVFRK	-0.256 ± 1.2
FESKYNTP	0.41 ± 0.47
TAGCICPCKQAVYGICQSRT	-0.447 ± 0.71
HCFRWSMLGLRYATCPFQSD	-0.108 ± 0.37
NMTSYSIYGELE	-0.341 ± 0.21
WFGYNIGPK	2 ± 0.28
KPRVRAAGLCSLQFWALIAV	-0.275 ± 0.72
VHFEGFWAFTLVDLT	0.232 ± 0.48

Substance	amyloid nucleation score
TIDGSPIGMTTWPVPSFKFS	0.742 ± 0.56
FFLRESNVGLAQRATMELLD	0.13 ± 1.2
QKSLSVEPDAH	-0.557 ± 0.37
CQVPSGESNDSPVLRHI	-0.138 ± 0.43
CSTRLSSKFSDTIYVEVFSF	inactive
LSVIFTLSFLTAIFAVGIWS	0.301 ± 0.23
YIVTTLQYDRSLASKVDEGT	-0.489 ± 0.56
VSSLWFKDYQYVFDDCYAKP	-0.258 ± 0.56
IRNSEKLNRGCGCGVMHVSV	0.239 ± 0.49
RFLTGCICAQSLRQLTS	-0.075 ± 0.48
RCLVFTLKRV	0.358 ± 0.61
SYSCSVSRKEFSIGVGEHEG	-0.44 ± 0.5
DKLVYLHWPIYNVSVLCCRG	5.14 ± 0.095
AWDYNKN	5.69 ± 0.075
RDPYFRQCTEKQI	1 ± 0.85
TYGRASRALGDFRQITRVAS	-1.38 ± 1.7
LYFVSSAFSSQS	0.014 ± 0.27
FFQTLDWV	-1.13 ± 2.4
TWTCDSVCCVRNKEVCGVYQ	0.033 ± 0.23
DADDLSIGAVNRTC	-0.066 ± 0.5
GSYECV	0.734 ± 1.2
WNPIAIYEGDGMQDAFCADL	-0.033 ± 0.38
WSLWARWSFRHRCQRMHLLL	0.174 ± 0.4
DYVPYEKAHRARMYCPTHQG	0.409 ± 0.35
ITFKLNMCPILWIPCVACSN	6.57 ± 0.047

Substance	amyloid nucleation score
PFRNKNQMRWDMKM	0.209 ± 0.37
WFASYCISFN	2.27 ± 0.21
IYKVLYYEVNKFWTTIVSSR	-0.651 ± 0.29
LMHRFPSINRLHTAPMPRAT	0.58 ± 1.1
LYFVLPTNKLPDRSY	-0.403 ± 0.84
RNYTVKKMNLC	inactive
VGEQSCLLFYMKQ	0.247 ± 0.29
SIDWRAEMNSLSM	-0.109 ± 0.24
CPGFFILVQCIVYMDTDCGF	3.81 ± 0.095
SWRVCVMFDTL	-0.987 ± 1.1
YNTSGNTRS	-0.269 ± 0.64
STLSAYCPTILA	0.171 ± 0.25
RDWKSFSVCVFLIFIACNTG	-0.605 ± 0.4
QCHVVDFRRKYLELRSSLRY	inactive
WTTSVSL	-0.346 ± 0.84
LLLTWFFPQHASRVNMSYSS	0.024 ± 0.39
QMGIMFALILQMYFSKFQDW	-0.182 ± 0.21
PLPVVA	0.225 ± 0.5
DRCSY	-0.431 ± 0.39
FERRCYRVSDHVAQVLHDPT	0.515 ± 0.97
VKGLRSLGSTCRSLKDGITV	inactive
GPTATVPPRHTREFILFKYS	-0.593 ± 1
RSLRVA	-0.214 ± 1.2
FCNNATSTQGNVFSGLLWTL	-0.202 ± 0.27
